The results in this text go back to publication PMC4666130 (Molecular Biology of the Cell, 2015).

By stoichiometry N is commonly meant the number of molecules, sites or subunits per partner or assembly.

The assay concerns the target T1, claudin-19 (human CLDN19), expressed in HEK293 cells (human, UniProt Q8N6F1 1-224).
T1 sequence (looked up): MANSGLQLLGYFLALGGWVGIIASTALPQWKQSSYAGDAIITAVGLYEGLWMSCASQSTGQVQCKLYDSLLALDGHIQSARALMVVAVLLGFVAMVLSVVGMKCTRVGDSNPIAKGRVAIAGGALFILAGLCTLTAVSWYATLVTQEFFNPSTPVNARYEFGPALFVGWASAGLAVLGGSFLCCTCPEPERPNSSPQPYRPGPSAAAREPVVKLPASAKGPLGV
The assay is described as follows: cross-linking.

B1: claudin-16 (human CLDN16), expressed in HEK293 cells (natural protein, UniProt Q9Y5I7 1-235, looked up)
chain: MRDLLQYIACFFAFFSAGFLIVATWTDCWMVNADDSLEVSTKCRGLWWECVTNAFDGIRTCDEYDSILAEHPLKLVVTRALMITADILAGFGFLTLLLGLDCVKFLPDEPYIKVRICFVAGATLLIAGTPGIIGSVWYAVDVYVERSTLVLHNIFLGIQYKFGWSCWLGMAGSLGCFLAGAVLTCCLYLFKDVGPERNYPYSLRKAYSAAGVSMAKSYSAPRTETAKMYAVDTRV
Turning to B1, the “stoichiometry N” value turned out to be 1 claudin-16 per claudin-19.
